Data: PMC6355003 (2019)

B1: Drp1 (dynamin-related protein Drp1), wild type [not stated] / GST-MiD51^133-463, wild type [human] (parent complex)
chain 1: MEALIPVINKLQDVFNTVGADIIQLPQIVVVGTQSSGKSSVLESLVGRDLLPRGTGIVTRRPLILQLVHVSQEDKRKTTGEENGVEAEEWGKFLHTKNKLYTDFDEIRQEIENETERISGNNKGVSPEPIHLKIFSPNVVNLTLVDLPGMTKVPVGDQPKDIELQIRELILRFISNPNSIILAVTAANTDMATSEALKISREVDPDGRRTLAVITKLDLMDAGTDAMDVLMGRVIPVKLGIIGVVNRSQLDINNKKSVTDSIRDEYAFLQKKYPSLANRNGTKYLARTLNRLLMHHIRDCLPELKTRINVLAAQYQSLLNSYGEPVDDKSATLLQLITKFATEYCNTIEGTAKYIETSELCGGARICYIFHETFGRTLESVDPLGGLNTIDILTAIRNATGPRPALFVPEVSFELLVKRQIKRLEEPSLRCVELVHEEMQRIIQHCSNYSTQELLRFPKLHDAIVEVVTCLLRKRLPVTNEMVHNLVAIELAYINTKHPDFADACGLMNNNIEEQRRNRLARELPSAVSRDKVASGGGGVGDGVQEPTTGNWRGMLKTSKAEELLAEEKSKPIPIMPASPQKGHAVNLLDVPVPVARKLSAREQRDCEVIERLIKSYFLIVRKNIQDSVPKAVMHFLVNHVKDTLQSELVGQLYKSSLLDDLLTESEDMAQRRKEAADMLKALQGASQIIAEIRETHLW
chain 2: MSLQEKLLTYYRNRAAIPAGEQARAKQAAVDICAELRSFLRAKLPDMPLRDMYLSGSLYDDLQVVTADHIQLIVPLVLEQNLWSCIPGEDTIMNVPGFFLVRRENPEYFPRGSSYWDRCVVGGYLSPKTVADTFEKVVAGSINWPAIGSLLDYVIRPAPPPEALTLEVQYERDKHLFIDFLPSVTLGDTVLVAKPHRLAQYDNLWRLSLRPAETARLRALDQADSGCRSLCLKILKAICKSTPALGHLTASQLTNVILHLAQEEADWSPDMLADRFLQALRGLISYLEAGVLPSALNPKVNLFAELTPEEIDELGYTLYCSLSEPEVLLQT

Variants of: B1
Experiment: GST pull-down, SDS-PAGE band quantification; parent: 0.3; read off a plot

Row | Variant | response [molar ratio]
1 | chain 2 R111E | ~0.082
2 | chain 2 Y108A | ~0.058
3 | chain 2 S285Q | ~0.33
4 | chain 2 F109A | ~0.055
5 | chain 2 E107R | ~0.42
6 | chain 2 R102E | ~0.082

Variants of: B1
Experiment: GST pull-down, SDS-PAGE band quantification; parent: 0.15; read off a plot

Row | Variant | response [molar ratio]
7 | chain 1 G350D, chain 1 A395D | ~0.01
8 | chain 1 G350D | ~0.089
9 | chain 1 A395D, chain 1 G401A, chain 1 P402A, chain 1 R403A, chain 1 P404A | ~0.012
10 | chain 1 G401A, chain 1 P402A, chain 1 R403A, chain 1 P404A | ~0.064
11 | chain 1 G350D, chain 1 G401A, chain 1 P402A, chain 1 R403A, chain 1 P404A | ~0.017
12 | chain 1 A395D | ~0.084
13 | chain 1 S600D | ~0.16
14 | chain 1 S579D | ~0.19
